From publication PMC11063326, “2-oxoglutarate-dependent dioxygenases and BAHD acyltransferases drive the structural diversification of orobanchol in Fabaceae plants” (Frontiers in Plant Science, 2024)

Substrate: CC1=C[C@H](O/C=C2/C(=O)O[C@@H]3[C@H]2[C@@H](O)[C@]24CCCC(C)(C)[C@]32O4)OC1=O
Assay: product formation (fabacyl acetate) by LC-MS/MS, crude recombinant enzyme
Type: biochemical, Lathyrus oleraceus
Settings: 200 μM acetyl-CoA, 50 mM citrate pH 6.0, 30°C
From the text: product formation (fabacyl acetate) by LC-MS/MS, crude recombinant enzyme on PsFAT (fabacol acetyltransferase, Psat7g079960)

B1: PsFAT (fabacol acetyltransferase, Psat7g079960) (Lathyrus oleraceus) (protein)
chain: MEMEIISREFIKPSSPTPPHLRNFPISFIDHITFRYYVPLLFFYNDTKVSDQKSKISHLKSSLSQILSIYYPFAGRFKDQRSIECNDQGVLFLVANITGIKLSTILENPDEKLFDHLFPDQLQWKLMEWNESILVVQINCFACGGIVISVCTCHKIIDATTAFNFVNDWSKLNREQESESKSTSASLLPYNLLYAGDTIFSLGNLPKFPEVDFAIDKTIVCKRFVFEASKIKLLKNLVNFNSHVVENPTRVEVITALIYKCVVSTLGLNFKTTSLQIAVNLRKRMIPPLSNKCVGNLVWILFVMNPELHDLVFRIRQGLSEFCEVYPKKFGGKEKDSSFICECLKQVTTRVSESDNNQSLIAYASWCKFPMYEADFGWGKPIWVTTSACPARNAVILMDTRDGDGIEVIVSMKKNDMVRFECDVELLQYASVNPSITS
notes: complete CDS from root cDNA, modified pCold III, E. coli BL21(DE3) with GroES/GroEL; crude E. coli extract
B1 was tested, and the Km was 0.287 ± 0.076 µM and the Vmax was 0.00745 µM/min.
